Assay results reported in article PMC10665946.

Assays:
[1] = target: V113A LukB CC8 LukAB (S. aureus); assay: negative stain electron microscopy; 0.03 mg/ml protein in TBS + 20% v/v MPD, RT 45 min; uranyl formate stain; 2D class averages
[2] = target: V113A LukB CC8 LukAB (S. aureus); assay: negative stain electron microscopy; 0.03 mg/ml protein in TBS + 40% v/v MPD, RT 45 min; uranyl formate stain; 2D class averages
[3] = target: WT CC8 LukAB (leukocidin A/leukocidin B) heterodimer (S. aureus); assay: as above

| Substance | stoichiometry N [1] | stoichiometry N [2] | stoichiometry N [3] |
| --- | --- | --- | --- |
| V113A LukB CC8 LukAB (complex) | 8 | 8 |  |
| WT CC8 LukAB (leukocidin A/leukocidin B) heterodimer (complex) |  |  | 8 |
